Laboratory results published in patent US20250360126.

Experiments:
[1] = tested on: T1, NPM2 (embryonic NPM1 paralog)
T1 sequence (Q86SE8 1-214, species assumed, looked up): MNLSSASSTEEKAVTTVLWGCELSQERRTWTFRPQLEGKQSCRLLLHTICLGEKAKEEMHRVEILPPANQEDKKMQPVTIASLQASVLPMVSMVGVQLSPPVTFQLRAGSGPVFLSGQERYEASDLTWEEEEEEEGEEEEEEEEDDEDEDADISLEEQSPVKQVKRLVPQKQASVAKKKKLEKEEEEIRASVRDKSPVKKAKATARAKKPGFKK

[2] = tested on: NPM1c (AML-mutant NPM1)
[3] = target: Nucleophosmin NPM1, wild type, full-length (UniProt P06748)
Sequence of Nucleophosmin NPM1, wild type, full-length (P06748 whole entry): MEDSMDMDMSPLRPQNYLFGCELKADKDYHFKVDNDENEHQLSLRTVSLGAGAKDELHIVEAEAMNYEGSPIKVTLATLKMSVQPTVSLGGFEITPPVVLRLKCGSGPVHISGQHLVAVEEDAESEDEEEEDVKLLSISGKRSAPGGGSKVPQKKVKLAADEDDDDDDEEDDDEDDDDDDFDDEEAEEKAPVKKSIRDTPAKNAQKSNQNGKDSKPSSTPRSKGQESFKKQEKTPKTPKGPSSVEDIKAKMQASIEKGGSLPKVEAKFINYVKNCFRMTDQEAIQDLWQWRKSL

[4] = tested on: Nap1 histone chaperone (a TTLL4 substrate protein)

active human TTLL4 enzyme (Tubulin-Tyrosine Ligase Like 4), recombinant
in vitro glutamate-glutamylation [1]: capable of catalyzing in vitro glutamate-glutamylation of Npm1, Npm2, and Nap1 histone chaperone substrates (not shown) | in vitro glutamate-glutamylation, immunoblot time course (FIG. 10) [2]: AML-mutant NPM1c is a better in vitro substrate for TTLL4 than the wildtype NPM1 | glutamate-glutamylation of substrate (FIG. 2B) [3]: TTLL4 glutamylates full-length NPM1 | in vitro glutamate-glutamylation [3]: capable of catalyzing in vitro glutamate-glutamylation of Npm1, Npm2, and Nap1 histone chaperone substrates (not shown) | in vitro glutamate-glutamylation, immunoblot time course (FIG. 10) [3]: AML-mutant NPM1c is a better in vitro substrate for TTLL4 than the wildtype NPM1 | in vitro glutamate-glutamylation [4]: capable of catalyzing in vitro glutamate-glutamylation of Npm1, Npm2, and Nap1 histone chaperone substrates (not shown) | kinase reaction, 32P-labeled phosphorylation (FIG. 7B) [4]: TTLL4 dependent 32P-labeled phosphorylation of Nap1 (a TTLL4 substrate protein)
